This is an account of results in the supplement of paper PMC7877785.

± gives the uncertainty stated by the source.

A short description of the data set: self-splicing fitness, log relative to wild type (ln ratio); higher = more splicing; Tetrahymena group I intron in knt gene, E. coli kanamycin selection, DiMSum; sequences stand for … in CUCUCU…GGAGGGAAAAGUUAUCAGGCAUGCACCUGGUAGCUAGUCUUUAAACCAAUAGAUUGCAUCGGUUUAAAAGGCAAGACCGUCAAAUUGCGGGAAAGGGGUCAACAGCCGUUCAGUACCAAGUCUCAGGGGAAACUUUGAGAUGGCCUUGCAAAGGGUAUGGUAAUAAGCUGACGGACAUGGUCCUAACCACGCAGCCAAGUCCUAAGUCAACAGAUCUUCUGUUGAUAUGGAUGCAGUUCACAGACUAAAUGUCGGUCGGGGAAGAUGUAUUCUUCUCAUAAGAUAUAGUCGGACCUCUCCUUAAUGGGAGCUAGCGGAUGAAGUGAUGCAACACUGGAGCCGCUGGGAACUAAUUUGUAUGCGAAAGUAUAUUGAUUAGUUUUGGAGUACUCGUGGUCG
Summed up:
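Pooled colonies went to amplicon sequencing on an Illumina HiSeq 2500 after six replicate transformations. The plates were LB agar with 100 μg/mL carbenicillin, 50 μM IPTG and 0.2% rhamnose, with or without 25 μg/mL kanamycin, incubated overnight at 37°C or 30°C. The E. coli BL21(DE3) library had all eight P1ex-region intron nucleotides randomised, the intron placed in the knt kanamycin-resistance gene on pET-22b(+). DiMSum fitness is the error-weighted combination of replicate fold changes, kanamycin against none, normalised to wild type.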

As for CUUUAGCAAUAUUACGGACA, the “self-splicing fitness (ln)” value was -2.76 ± 0.38 (30 °C) and -1.44 ± 0.28 (37 °C).
The corresponding values for CUUUAGCAAUAUUACGGGUC are -3.26 ± 0.17 and -1.32 ± 0.21.
CUUUAGCAAUAUUACGUAAA: the “self-splicing fitness (ln)” value (37 °C) was -2.24 ± 0.28.
With CUUUAGCAAUAUUACGUAGU, the “self-splicing fitness (ln)” value was -3.52 ± 0.2 (30 °C) and -2.2 ± 0.22 (37 °C).
The matching figures for CUUUAGCAAUAUUACGUGAG: -1.07 ± 0.11 and -0.581 ± 0.14.
The corresponding values for CUUUAGCAAUAUUACGUGUA are -3.34 ± 0.19 and -2.81 ± 0.24.
The corresponding values for CUUUAGCAAUAUUACGUUCU are -3.16 ± 0.25 and -2.78 ± 0.29.
For the sequence GAAAAGCAAUAUUACGAACG, the “self-splicing fitness (ln)” value is, setting by setting: (30 °C) -0.893 ± 0.083; (37 °C) -0.364 ± 0.11.
The corresponding values for GAAAAGCAAUAUUACGAACU are -0.519 ± 0.1 and 0.532 ± 0.13.
The matching figures for GAAAAGCAAUAUUACGAAGG: -3.27 ± 0.24 and -3.01 ± 0.37.
The corresponding values for GAAAAGCAAUAUUACGAAUC are -2.99 ± 0.21 and -1.04 ± 0.18.
As to GAAAAGCAAUAUUACGACAG, the “self-splicing fitness (ln)” value reads like this: (30 °C) -2.55 ± 0.19; (37 °C) -2.27 ± 0.25.
The matching figures for GAAAAGCAAUAUUACGACCG: -0.942 ± 0.14 and -0.33 ± 0.17.
Regarding GAAAAGCAAUAUUACGACGG, the “self-splicing fitness (ln)” value is, setting by setting: (30 °C) -2.29 ± 0.17; (37 °C) -2.4 ± 0.32.
For GAAAAGCAAUAUUACGAGAG, the “self-splicing fitness (ln)” value runs as follows: (30 °C) -3.43 ± 0.28; (37 °C) -2.48 ± 0.21.
The corresponding values for GAAAAGCAAUAUUACGAGAU are -3.26 ± 0.26 and -2.08 ± 0.28.
GAAAAGCAAUAUUACGAGUU: the “self-splicing fitness (ln)” value by setting is: (30 °C) -1.15 ± 0.073; (37 °C) 0.164 ± 0.094.
Regarding GAAAAGCAAUAUUACGCAAC, the “self-splicing fitness (ln)” value runs as follows: (30 °C) -2.92 ± 0.16; (37 °C) -0.437 ± 0.16.
The corresponding values for GAAAAGCAAUAUUACGCCCG are -0.583 ± 0.14 and -0.75 ± 0.21.
The matching figures for GAAAAGCAAUAUUACGCCGG: -1.34 ± 0.18 and -1.2 ± 0.17.
The corresponding values for GAAAAGCAAUAUUACGCCUA are -1.15 ± 0.11 and -0.681 ± 0.099.
Consider GAAAAGCAAUAUUACGCGCA, for which the “self-splicing fitness (ln)” value is -0.195 ± 0.062 (30 °C) and -0.0235 ± 0.084 (37 °C).
The corresponding values for GAAAAGCAAUAUUACGGCCC are 0.0394 ± 0.14 and 0.473 ± 0.17.
The matching figures for GAAAAGCAAUAUUACGGCUG: -0.13 ± 0.091 and 0.108 ± 0.14.
With GAAAAGCAAUAUUACGUAAG, the “self-splicing fitness (ln)” value (30 °C) was -2.23 ± 0.11 and the “self-splicing fitness (ln)” value (37 °C) is -0.733 ± 0.12.
As to GAAAAGCAAUAUUACGUAGU, the “self-splicing fitness (ln)” value reads like this: (30 °C) -2.02 ± 0.077; (37 °C) -1.75 ± 0.13.
The corresponding values for GAAAAGCAAUAUUACGUGUA are -2.58 ± 0.11 and -0.56 ± 0.085.
The corresponding values for GAAAAGCAAUAUUACGUGUC are -3.41 ± 0.13 and -2.33 ± 0.14.
The matching figures for GAAAAGCAAUAUUACGUUAC: -2.67 ± 0.12 and -1.84 ± 0.13.
Take GAAAAGCAAUAUUACGUUCC: the “self-splicing fitness (ln)” value is, setting by setting: (30 °C) -3.72 ± 0.26; (37 °C) -2.95 ± 0.24.
The matching figures for GAAAAGCAAUAUUACGUUGG: -3.55 ± 0.19 and -2.16 ± 0.16.
Turning to GAAAAGCAAUAUUACGUUUC, the “self-splicing fitness (ln)” value was -2.95 ± 0.17 (30 °C) and -2.69 ± 0.25 (37 °C).
The corresponding values for GAACAGCAAUAUUACGACAA are -1.24 ± 0.13 and -0.239 ± 0.15.
The corresponding values for GAACAGCAAUAUUACGACCA are -0.754 ± 0.12 and -0.113 ± 0.12.
Regarding GAACAGCAAUAUUACGACCU, the “self-splicing fitness (ln)” value reads like this: (30 °C) -0.509 ± 0.099; (37 °C) -0.0216 ± 0.13.
On to GAACAGCAAUAUUACGACUC, for which the “self-splicing fitness (ln)” value reads like this: (30 °C) 0.0151 ± 0.071; (37 °C) -0.517 ± 0.082.
Take GAACAGCAAUAUUACGAGCG: the “self-splicing fitness (ln)” value was -1.94 ± 0.089 (30 °C) and -0.559 ± 0.1 (37 °C).
